Results on 34 variants are retold here after the Human Domainome abundance scans (Beltran et al. 2025).

± gives the uncertainty stated by the source.

To fix the notation:
B1: Friend leukemia integration 1 transcription factor, residues 116 to 197; numbered along this chain, Q01543 (parent)
chain: NMTTNERRVIVPADPTLWTQEHVRQWLEWAIKEYSLMEIDTSFFQNMDGKELCKMNKEDFLRATTLYNTEVLLSHLSYLRES

Variants of B1 are the subject of this data set. As to the kind of experiment: abundance fitness (aPCA) (normalised: wild type 0, dead -1); higher = more abundant; growth selection in yeast, the domain comes from the species named. To be noted: Homo sapiens.
For NMTTNERRVIVPADPTLWTQEHVRQCLEWAIKEYSLMEIDTSFFQNMDGKELCKMNKEDFLRATTLYNTEVLLSHLSYLRES [W26C], the abundance fitness is -0.626 ± 0.29.

In the case of NMTTNERRVIVPADPTLWTQEHVRQWLEWAIKEYSLMEIDTSFFQNMDGKELCKMNKEDFLRATTLYNTEVLLDHLSYLRES [S74D], the abundance fitness came out at 0.014 ± 0.35.

Regarding NMTTNERRVIVPADPTLWTQEHVRQWLEWAIKEYSLMEIDHSFFQNMDGKELCKMNKEDFLRATTLYNTEVLLSHLSYLRES [T41H], the abundance fitness is -0.14 ± 0.17.

As to NMTTNERRVIVPADPTLWTQEHVRQWLEWAIKEYSLMEIDDSFFQNMDGKELCKMNKEDFLRATTLYNTEVLLSHLSYLRES [T41D], the abundance fitness worked out at 0.063 ± 0.21.

Take NMTTNERRVIVPADPTLWTQEHVRQWLEWAIKEYSLMEIDVSFFQNMDGKELCKMNKEDFLRATTLYNTEVLLSHLSYLRES [T41V]: the abundance fitness was -0.09 ± 0.1.

NMTTNPRRVIVPADPTLWTQEHVRQWLEWAIKEYSLMEIDTSFFQNMDGKELCKMNKEDFLRATTLYNTEVLLSHLSYLRES [E6P]: the abundance fitness was -0.126 ± 0.091.

In the case of NMTTNERRVIVPDDPTLWTQEHVRQWLEWAIKEYSLMEIDTSFFQNMDGKELCKMNKEDFLRATTLYNTEVLLSHLSYLRES [A13D], the abundance fitness is 0.121 ± 0.088.

Turning to NMTTNERRVIVPADPTLWTQEHVRQWLEWAIKEYSLMEILTSFFQNMDGKELCKMNKEDFLRATTLYNTEVLLSHLSYLRES [D40L], the abundance fitness is -0.921 ± 0.12.

NMTTNERRVIVPADPTLWTQEHVRQWLEWAIKEYSLMEIDTSFFHNMDGKELCKMNKEDFLRATTLYNTEVLLSHLSYLRES [Q45H]: the abundance fitness was -0.072 ± 0.15.

For NMTTNERRVIVPADPTLWTQEHVRQWLEWWIKEYSLMEIDTSFFQNMDGKELCKMNKEDFLRATTLYNTEVLLSHLSYLRES [A30W], the abundance fitness was -0.554 ± 0.078.

As to NMTTNERRVIVPADPTLWTQEHVRQWLEWAIKEYSLMEIDTSFFQNMDGKELCKMNKEDFLRATTLYNTEVLVSHLSYLRES [L73V], the abundance fitness is -0.085 ± 0.074.

With NMTTNERRVIVPADPTLWTQEHVRQWLEWAIKEYSLMEIDTSFFQNMDGKELCKMNKEDFLRATTLYNTEVLASHLSYLRES [L73A], the abundance fitness was -0.133 ± 0.11.

Turning to NMTTNERRVIGPADPTLWTQEHVRQWLEWAIKEYSLMEIDTSFFQNMDGKELCKMNKEDFLRATTLYNTEVLLSHLSYLRES [V11G], the abundance fitness was 0.061 ± 0.043.

With NMTTNERRVICPADPTLWTQEHVRQWLEWAIKEYSLMEIDTSFFQNMDGKELCKMNKEDFLRATTLYNTEVLLSHLSYLRES [V11C], the abundance fitness turned out to be 0.217 ± 0.089.

Take NMTTNERRVIVPADPTLWTQEEVRQWLEWAIKEYSLMEIDTSFFQNMDGKELCKMNKEDFLRATTLYNTEVLLSHLSYLRES [H22E]: the abundance fitness came out at 0.062 ± 0.14.

Regarding NMTTNERRVHVPADPTLWTQEHVRQWLEWAIKEYSLMEIDTSFFQNMDGKELCKMNKEDFLRATTLYNTEVLLSHLSYLRES [I10H], the abundance fitness was -0.033 ± 0.16.

In the case of NPTTNERRVIVPADPTLWTQEHVRQWLEWAIKEYSLMEIDTSFFQNMDGKELCKMNKEDFLRATTLYNTEVLLSHLSYLRES [M2P], the abundance fitness was -0.099 ± 0.13.

In the case of NRTTNERRVIVPADPTLWTQEHVRQWLEWAIKEYSLMEIDTSFFQNMDGKELCKMNKEDFLRATTLYNTEVLLSHLSYLRES [M2R], the abundance fitness worked out at 0.057 ± 0.089.

As to NVTTNERRVIVPADPTLWTQEHVRQWLEWAIKEYSLMEIDTSFFQNMDGKELCKMNKEDFLRATTLYNTEVLLSHLSYLRES [M2V], the abundance fitness was -0.584 ± 0.11.

As for NMTTNERRVIVPADPTLWMQEHVRQWLEWAIKEYSLMEIDTSFFQNMDGKELCKMNKEDFLRATTLYNTEVLLSHLSYLRES [T19M], the abundance fitness was -0.39 ± 0.11.

For the variant NMTTNERRVIVPADPTLWTQEHVRQWLEWAKKEYSLMEIDTSFFQNMDGKELCKMNKEDFLRATTLYNTEVLLSHLSYLRES [I31K], the abundance fitness is -0.059 ± 0.1.

With NMTTNERRVIVPADPTLWTQEHVRQWLEWAIKEYSLMEIDTSFFQVMDGKELCKMNKEDFLRATTLYNTEVLLSHLSYLRES [N46V], the abundance fitness is -0.34 ± 0.23.

On to NMTTNERRVIVPADPTLWTQEHVRQWLEWAIKERSLMEIDTSFFQNMDGKELCKMNKEDFLRATTLYNTEVLLSHLSYLRES [Y34R], for which the abundance fitness is -0.207 ± 0.051.

For NMTTNERRVIVPADPTLWTQEHVRQWLEWAIKEYSLWEIDTSFFQNMDGKELCKMNKEDFLRATTLYNTEVLLSHLSYLRES [M37W], the abundance fitness was -0.13 ± 0.062.

For the variant NMTTNERRVIVPADPTLWTQEHVRQWLEWAIFEYSLMEIDTSFFQNMDGKELCKMNKEDFLRATTLYNTEVLLSHLSYLRES [K32F], the abundance fitness was -0.332 ± 0.3.

On to NMTTNERRVIVPADPTLWTQEHVRQWLPWAIKEYSLMEIDTSFFQNMDGKELCKMNKEDFLRATTLYNTEVLLSHLSYLRES [E28P], for which the abundance fitness is -0.745 ± 0.32.

For NMTTNERRVIVPADPTLWTQEHVRQWLEWAIKEYSLMEIDTSFFQNNDGKELCKMNKEDFLRATTLYNTEVLLSHLSYLRES [M47N], the abundance fitness is -0.285 ± 0.31.

Consider NMTTNERRVIVPADPTLWTQEHVRQWLEWAIKEYSLMEIDTSFFQNIDGKELCKMNKEDFLRATTLYNTEVLLSHLSYLRES [M47I], for which the abundance fitness is 0.077 ± 0.15.

With NMTTNERRVIVPADPTLWTQEHVRQWLEWAIKEYSLMEIDTSFFQNMDGKELCKMNKEDFLRATTLLNTEVLLSHLSYLRES [Y67L], the abundance fitness is -0.125 ± 0.057.

NMTTNERRVIVPADPTLWTQEHVRQWLEWAIKEYSLMEIDTSFFQNMDGKELCKMNKEDFLRATGLYNTEVLLSHLSYLRES [T65G]: the abundance fitness was -0.058 ± 0.058.

Turning to NMNTNERRVIVPADPTLWTQEHVRQWLEWAIKEYSLMEIDTSFFQNMDGKELCKMNKEDFLRATTLYNTEVLLSHLSYLRES [T3N], the abundance fitness is -0.076 ± 0.44.

For NMTTNERRVIVPADPTLWTQEHVRQWLEWAIKEYSLMEIDTSFFQNMDGKELCKMNVEDFLRATTLYNTEVLLSHLSYLRES [K57V], the abundance fitness is -0.013 ± 0.067.

In the case of NMTTNERRVIVPADPTLWTQEHVRQWLEWAIKEYSLMEIDTSFFQNMDGKELCKMPKEDFLRATTLYNTEVLLSHLSYLRES [N56P], the abundance fitness is -0.155 ± 0.071.

Regarding NMTTNERRVIVPADPTLWTQEHVRQWLEWAIKEYSLMEIDTSWFQNMDGKELCKMNKEDFLRATTLYNTEVLLSHLSYLRES [F43W], the abundance fitness turned out to be 0.002 ± 0.073.
